Measured values taken from article PMC5019145 (Molecular microbiology, 2015).

Key:
[1] = target: SaFlaH (Sulfolobus acidocaldarius, UniProt Q4J9K9, D122N); assay: fluorescence titration; type: binding; settings: 1 µM protein, 5 mM MnCl2, pH 6.2, 25 °C; labelled compound
[2] = target: SaFlaH (Sulfolobus acidocaldarius, UniProt Q4J9K9, K33A); assay: fluorescence titration; type: binding; settings: 1 µM protein, 5 mM MnCl2, pH 6.2, 25 °C; labelled compound
[3] = target: Pyrococcus furiosus FlaH, wild type (PfFlaH) (Pyrococcus furiosus); assay: MST
[4] = target: T1, StrepII-tagged Sulfolobus acidocaldarius FlaH (StrepII-FlaH) (Sulfolobus acidocaldarius, UniProt Q4J9K9 1-228); assay: pull-down
T1 sequence: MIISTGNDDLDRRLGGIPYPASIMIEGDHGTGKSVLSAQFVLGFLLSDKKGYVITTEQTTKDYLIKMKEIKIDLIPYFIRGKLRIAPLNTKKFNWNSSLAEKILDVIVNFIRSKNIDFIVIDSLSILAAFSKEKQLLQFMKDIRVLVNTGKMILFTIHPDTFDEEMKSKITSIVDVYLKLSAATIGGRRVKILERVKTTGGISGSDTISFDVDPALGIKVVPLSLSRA

Chain of SaFlaH (Sulfolobus acidocaldarius, UniProt Q4J9K9, D122N) (Q4J9K9 whole entry D122N): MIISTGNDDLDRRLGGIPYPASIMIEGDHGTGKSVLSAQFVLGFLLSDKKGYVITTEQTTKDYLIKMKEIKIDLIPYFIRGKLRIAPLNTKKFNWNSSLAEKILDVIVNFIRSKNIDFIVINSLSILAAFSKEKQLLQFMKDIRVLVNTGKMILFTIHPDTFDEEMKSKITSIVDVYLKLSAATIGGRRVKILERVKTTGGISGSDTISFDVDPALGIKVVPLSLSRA
Chain of SaFlaH (Sulfolobus acidocaldarius, UniProt Q4J9K9, K33A) (Q4J9K9 whole entry K33A): as the sequence (Q4J9K9 whole entry D122N) above, with K33A, N122D counted along it

For `CNc1ccccc1C(=O)O[C@H]1[C@@H](O)[C@H](n2cnc3c(N)ncnc32)O[C@@H]1COP(=O)(O)OP(=O)(O)OP(=O)(O)O` (mixture of isomers) [MANT-ATP, 2’-/3’-O-(N’-methylanthraniloyl) adenosine-5’-O-triphosphate], the “fluorescence titration (FRET from tryptophan to MANT)” value [1] was “SaFlaH^K33A and SaFlaH^D122N only bound MANT-ATP with strongly reduced affinity” and the “fluorescence titration (FRET from tryptophan to MANT)” value [2] was “SaFlaH^K33A and SaFlaH^D122N only bound MANT-ATP with strongly reduced affinity”.

“Pyrococcus furiosus FlaI (PfFlaI) (enzyme)” showed a Kd [3] of 1000 nM.

B1: His6-tagged Sulfolobus acidocaldarius FlaXcc1 (FlaXc without the N-terminal domain 38-86) (domain or fragment, UniProt Q4J9K6 87-250, looked up)
chain: KKENELLTNITNSFNEMKKLIENLNSAVEELALSVKASESDSSSPFNTIIQQEEEHVSREISTVSQLVGSNNPNNVNLTWFIKSCVLLEIMEYDEEKIKQLYELGYVSSDDMFTILRILSFIKNRKITAKELASIAANIAESYSSLTPEIKKYIMILEGGGVNG
B1: binds [4].

B2: His6-tagged Sulfolobus acidocaldarius FlaXc (FlaX without its first 37 residues) (domain or fragment, UniProt Q4J9K6 38-250, looked up)
chain: KRVQTQQSPQNISQEQRFPTQQKPANDETSKYSSDSIEKALKDVLGKMDKKENELLTNITNSFNEMKKLIENLNSAVEELALSVKASESDSSSPFNTIIQQEEEHVSREISTVSQLVGSNNPNNVNLTWFIKSCVLLEIMEYDEEKIKQLYELGYVSSDDMFTILRILSFIKNRKITAKELASIAANIAESYSSLTPEIKKYIMILEGGGVNG
B2: binds [4].
